Test results as given in US20130336893A1 (Sanofi, published 2013).
*1 amine or outer side, *2 acyl side, *3 side chain or, on linkers, in order; H or OH if unused. Where no end group is shown, it is not given here. Side-chain parts run from the residue outwards. [ ]: non-standard residue; d: D form. The star is where a group is joined. γGlu = O=C(O)[C@H](CCC(=O)[*:2])N[*:1]; Palmitoyl = CCCCCCCCCCCCCCCC(=O)*; Aib = CC(C)(N)C(=O)O

B1: SEQ ID NO: (70) (peptide)
peptide: H[dS]QGTFTSDLSKQMDERRAKDFIEWLKNGGPSSGAPPPSK([γGlu-Palmitoyl])-NH2
modifications: N-terminus assumed
SMILES: CCCCCCCCCCCCCCCC(=O)N[C@@H](CCC(=O)NCCCC[C@H](NC(=O)[C@H](CO)NC(=O)[C@@H]1CCCN1C(=O)[C@@H]1CCCN1C(=O)[C@@H]1CCCN1C(=O)[C@H](C)NC(=O)CNC(=O)[C@H](CO)NC(=O)[C@H](CO)NC(=O)[C@@H]1CCCN1C(=O)CNC(=O)CNC(=O)[C@H](CC(N)=O)NC(=O)[C@H](CCCCN)NC(=O)[C@H](CC(C)C)NC(=O)[C@H](Cc1c[nH]c2ccccc12)NC(=O)[C@H](CCC(=O)O)NC(=O)[C@@H](NC(=O)[C@H](Cc1ccccc1)NC(=O)[C@H](CC(=O)O)NC(=O)[C@H](CCCCN)NC(=O)[C@H](C)NC(=O)[C@H](CCCNC(=N)N)NC(=O)[C@H](CCCNC(=N)N)NC(=O)[C@H](CCC(=O)O)NC(=O)[C@H](CC(=O)O)NC(=O)[C@H](CCSC)NC(=O)[C@H](CCC(N)=O)NC(=O)[C@H](CCCCN)NC(=O)[C@H](CO)NC(=O)[C@H](CC(C)C)NC(=O)[C@H](CC(=O)O)NC(=O)[C@H](CO)NC(=O)[C@@H](NC(=O)[C@H](Cc1ccccc1)NC(=O)[C@@H](NC(=O)CNC(=O)[C@H](CCC(N)=O)NC(=O)[C@@H](CO)NC(=O)[C@@H](N)Cc1c[nH]cn1)[C@@H](C)O)[C@@H](C)O)[C@@H](C)CC)C(N)=O)C(=O)O
B2: SEQ ID NO: (65) (peptide)
peptide: H[dS]QGTFTSDLSKQMDSRRAQDFIEWLKSGGPSSGAPPPSK([γGlu-Palmitoyl])-NH2
modifications: N-terminus assumed
SMILES: CCCCCCCCCCCCCCCC(=O)N[C@@H](CCC(=O)NCCCC[C@H](NC(=O)[C@H](CO)NC(=O)[C@@H]1CCCN1C(=O)[C@@H]1CCCN1C(=O)[C@@H]1CCCN1C(=O)[C@H](C)NC(=O)CNC(=O)[C@H](CO)NC(=O)[C@H](CO)NC(=O)[C@@H]1CCCN1C(=O)CNC(=O)CNC(=O)[C@H](CO)NC(=O)[C@H](CCCCN)NC(=O)[C@H](CC(C)C)NC(=O)[C@H](Cc1c[nH]c2ccccc12)NC(=O)[C@H](CCC(=O)O)NC(=O)[C@@H](NC(=O)[C@H](Cc1ccccc1)NC(=O)[C@H](CC(=O)O)NC(=O)[C@H](CCC(N)=O)NC(=O)[C@H](C)NC(=O)[C@H](CCCNC(=N)N)NC(=O)[C@H](CCCNC(=N)N)NC(=O)[C@H](CO)NC(=O)[C@H](CC(=O)O)NC(=O)[C@H](CCSC)NC(=O)[C@H](CCC(N)=O)NC(=O)[C@H](CCCCN)NC(=O)[C@H](CO)NC(=O)[C@H](CC(C)C)NC(=O)[C@H](CC(=O)O)NC(=O)[C@H](CO)NC(=O)[C@@H](NC(=O)[C@H](Cc1ccccc1)NC(=O)[C@@H](NC(=O)CNC(=O)[C@H](CCC(N)=O)NC(=O)[C@@H](CO)NC(=O)[C@@H](N)Cc1c[nH]cn1)[C@@H](C)O)[C@@H](C)O)[C@@H](C)CC)C(N)=O)C(=O)O
B3: SEQ ID NO: (69) (peptide)
peptide: H[dS]QGTFTSDLSKQMDKRRAQDFIEWLKNGGPSSGAPPPSK([γGlu-Palmitoyl])-NH2
modifications: N-terminus assumed
SMILES: CCCCCCCCCCCCCCCC(=O)N[C@@H](CCC(=O)NCCCC[C@H](NC(=O)[C@H](CO)NC(=O)[C@@H]1CCCN1C(=O)[C@@H]1CCCN1C(=O)[C@@H]1CCCN1C(=O)[C@H](C)NC(=O)CNC(=O)[C@H](CO)NC(=O)[C@H](CO)NC(=O)[C@@H]1CCCN1C(=O)CNC(=O)CNC(=O)[C@H](CC(N)=O)NC(=O)[C@H](CCCCN)NC(=O)[C@H](CC(C)C)NC(=O)[C@H](Cc1c[nH]c2ccccc12)NC(=O)[C@H](CCC(=O)O)NC(=O)[C@@H](NC(=O)[C@H](Cc1ccccc1)NC(=O)[C@H](CC(=O)O)NC(=O)[C@H](CCC(N)=O)NC(=O)[C@H](C)NC(=O)[C@H](CCCNC(=N)N)NC(=O)[C@H](CCCNC(=N)N)NC(=O)[C@H](CCCCN)NC(=O)[C@H](CC(=O)O)NC(=O)[C@H](CCSC)NC(=O)[C@H](CCC(N)=O)NC(=O)[C@H](CCCCN)NC(=O)[C@H](CO)NC(=O)[C@H](CC(C)C)NC(=O)[C@H](CC(=O)O)NC(=O)[C@H](CO)NC(=O)[C@@H](NC(=O)[C@H](Cc1ccccc1)NC(=O)[C@@H](NC(=O)CNC(=O)[C@H](CCC(N)=O)NC(=O)[C@@H](CO)NC(=O)[C@@H](N)Cc1c[nH]cn1)[C@@H](C)O)[C@@H](C)O)[C@@H](C)CC)C(N)=O)C(=O)O
B4: SEQ ID NO: (64) (peptide)
peptide: H[dS]QGTFTSDLSKQMESRRAQDFIEWLKNAGPSSGAPPPSK([γGlu-Palmitoyl])-NH2
modifications: N-terminus assumed
SMILES: CCCCCCCCCCCCCCCC(=O)N[C@@H](CCC(=O)NCCCC[C@H](NC(=O)[C@H](CO)NC(=O)[C@@H]1CCCN1C(=O)[C@@H]1CCCN1C(=O)[C@@H]1CCCN1C(=O)[C@H](C)NC(=O)CNC(=O)[C@H](CO)NC(=O)[C@H](CO)NC(=O)[C@@H]1CCCN1C(=O)CNC(=O)[C@H](C)NC(=O)[C@H](CC(N)=O)NC(=O)[C@H](CCCCN)NC(=O)[C@H](CC(C)C)NC(=O)[C@H](Cc1c[nH]c2ccccc12)NC(=O)[C@H](CCC(=O)O)NC(=O)[C@@H](NC(=O)[C@H](Cc1ccccc1)NC(=O)[C@H](CC(=O)O)NC(=O)[C@H](CCC(N)=O)NC(=O)[C@H](C)NC(=O)[C@H](CCCNC(=N)N)NC(=O)[C@H](CCCNC(=N)N)NC(=O)[C@H](CO)NC(=O)[C@H](CCC(=O)O)NC(=O)[C@H](CCSC)NC(=O)[C@H](CCC(N)=O)NC(=O)[C@H](CCCCN)NC(=O)[C@H](CO)NC(=O)[C@H](CC(C)C)NC(=O)[C@H](CC(=O)O)NC(=O)[C@H](CO)NC(=O)[C@@H](NC(=O)[C@H](Cc1ccccc1)NC(=O)[C@@H](NC(=O)CNC(=O)[C@H](CCC(N)=O)NC(=O)[C@@H](CO)NC(=O)[C@@H](N)Cc1c[nH]cn1)[C@@H](C)O)[C@@H](C)O)[C@@H](C)CC)C(N)=O)C(=O)O

molecular target: human glucagon receptor (human, UniProt P47871 26-477); assay: cell-based or functional assay
Sequence (P47871 26-477): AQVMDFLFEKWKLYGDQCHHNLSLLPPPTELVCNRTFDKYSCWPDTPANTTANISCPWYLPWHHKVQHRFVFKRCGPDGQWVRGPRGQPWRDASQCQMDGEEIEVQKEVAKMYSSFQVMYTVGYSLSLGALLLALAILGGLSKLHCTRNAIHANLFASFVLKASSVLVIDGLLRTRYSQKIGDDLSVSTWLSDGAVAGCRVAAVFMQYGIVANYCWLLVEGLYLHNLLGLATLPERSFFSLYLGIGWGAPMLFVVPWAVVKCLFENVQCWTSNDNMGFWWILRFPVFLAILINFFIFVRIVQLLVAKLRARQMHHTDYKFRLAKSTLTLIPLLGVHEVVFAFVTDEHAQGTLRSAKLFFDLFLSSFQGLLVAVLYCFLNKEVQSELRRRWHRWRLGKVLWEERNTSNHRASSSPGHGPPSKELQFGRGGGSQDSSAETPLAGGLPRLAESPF

Row | Binder | EC50 hGlucagonR (cAMP formation) [nM]
1 | B1 | 0.0172
2 | H[dS]QGTFTSDLSKQMESRRAQDFIEWLK[Aib]GGPSSGAPPPSK([γGlu-Palmitoyl])-NH2 [SEQ ID NO: (73)] | 0.0212
3 | B2 | 0.0057
4 | B3 | 0.0059
5 | B4 | 0.067

molecular target: human GLP-1 receptor (human, UniProt P43220 24-463); assay: cell-based or functional assay

Row | Binder | EC50 hGLP-1R (cAMP formation) [nM]
6 | B1 | 0.005
7 | H[dS]QGTFTSDLSKQMESRRAQDFIEWLK[Aib]GGPSSGAPPPSK([γGlu-Palmitoyl])-NH2 [SEQ ID NO: (73)] | 0.0044
8 | B2 | 0.015
9 | B3 | 0.0076
10 | B4 | 0.0219
